Data as given in PMC3045386, “Insights into the Function of the CRM1 Cofactor RanBP3 from the Structure of Its Ran-Binding Domain” (PLoS ONE, 2011).

B1: Human full-length RanBP3 (residues 1–499; isoform B) (natural protein)
chain: MADLANEEKPAIAPPVFVFQKDKGQKRSAGGSSPEGGEDSDREDGNYCPPVKRERTSSLTQFPPSQSEERSSGFRLKPPTLIHGQAPSAGLPSQKPKEQQRSVLRPAVLQAPQPKALSQTVPSSGTNGVSLPADCTGAVPAASPDTAAWRSPSEAADEVCALEEKEPQKNESSNASEEEACEKKDPATQQAFVFGQNLRDRVKLINESVDEADMENAGHPSADTPTATNYFLQYISSSLENSTNSADASSNKFVFGQNMSERVLSPPKLNEVSSDANRENAAAESGSESSSQEATPEKESLAESAAAYTKATARKCLLEKVEVITGEEAESNVLQMQCKLFVFDKTSQSWVERGRGLLRLNDMASTDDGTLQSRLVMRTQGSLRLILNTKLWAQMQIDKASEKSIRITAMDTEDQGVKVFLISASSKDTGQLYAALHHRILALRSRVEQEQEAKMPAPEPGAAPSNEEDDSDDDDVLAPSGATAAGAGDEGDGQTTGST
B2: RanBP3 RBD (residues 310–454) (domain or fragment)
chain: KATARKCLLEKVEVITGEEAESNVLQMQCKLFVFDKTSQSWVERGRGLLRLNDMASTDDGTLQSRLVMRTQGSLRLILNTKLWAQMQIDKASEKSIRITAMDTEDQGVKVFLISASSKDTGQLYAALHHRILALRSRVEQEQEAK

How the values were obtained:
RanQ69L:GTP [1] = biological target: T1, RanQ69L:GTP (human, UniProt P62826 1-216, Q69L); assay: ITC; 530 µM RanQ69L:GTP titrated into 48 µM full-length RanBP3; 25°C; 300 mM NaCl, 5 mM MgCl2, 10 mM TRIS pH 7.4; single-site binding model; Kd,obs; conditions: both partners purified
RanQ69L:GTP [2] = biological target: T1, RanQ69L:GTP; assay: ITC; 800 µM RanBP3 RBD (residues 310–454) titrated into 70 µM RanQ69L:GTP; 25°C; 300 mM NaCl, 5 mM MgCl2, 10 mM TRIS pH 7.4; single-site binding model; Kd,obs; conditions: both partners purified

Binder | Kd (RanQ69L:GTP [1]) [µM] | Kd (RanQ69L:GTP [2]) [µM] | stoichiometry N (RanQ69L:GTP [2])
B1 | 15 ± 3 |  | 
B2 |  | 14 ± 0.3 | 0.93 ± 0.01
